Consider three molecules from paper doi:10.1101/2023.11.29.569220, “Spartin-mediated lipid transfer facilitates lipid droplet turnover” (bioRxiv, 2023).

A word on the stoichiometry N: it is the number of molecules, sites or subunits per partner or assembly.

Experiment in all cases: native gel or EMSA; blue native PAGE, 4%-16% Bis-Tris gel, 4C, 1-2 ug protein purified in buffer A (50 mM HEPES, 500 mM NaCl, pH 8.0, 1 mM TCEP, 10% glycerol); migration according to MW against NativeMark standards
Background: Mobility shift assays separate free from complexed probe on a gel.

The target of series [1] is CeSpartin (C. elegans spartin) (C. elegans).
Series [2] concerns the target CtSpartinL (spartin-like protein from Chaetomium thermophilum) (Chaetomium thermophilum).
Series [3] concerns the molecule itself.

In series [1], “CeSpartin (C. elegans spartin) (natural protein)” registered a stoichiometry N of 3. In the case of “CtSpartinL (spartin-like protein from Chaetomium thermophilum) (natural protein)”, the stoichiometry N in series [2] worked out at 3.

B1: HsSpartin (human spartin, SPG20) (natural protein, UniProt Q8N0X7 1-666, looked up)
chain: MEQEPQNGEPAEIKIIREAYKKAFLFVNKGLNTDELGQKEEAKNYYKQGIGHLLRGISISSKESEHTGPGWESARQMQQKMKETLQNVRTRLEILEKGLATSLQNDLQEVPKLYPEFPPKDMCEKLPEPQSFSSAPQHAEVNGNTSTPSAGAVAAPASLSLPSQSCPAEAPPAYTPQAAEGHYTVSYGTDSGEFSSVGEEFYRNHSQPPPLETLGLDADELILIPNGVQIFFVNPAGEVSAPSYPGYLRIVRFLDNSLDTVLNRPPGFLQVCDWLYPLVPDRSPVLKCTAGAYMFPDTMLQAAGCFVGVVLSSELPEDDRELFEDLLRQMSDLRLQANWNRAEEENEFQIPGRTRPSSDQLKEASGTDVKQLDQGNKDVRHKGKRGKRAKDTSSEEVNLSHIVPCEPVPEEKPKELPEWSEKVAHNILSGASWVSWGLVKGAEITGKAIQKGASKLRERIQPEEKPVEVSPAVTKGLYIAKQATGGAAKVSQFLVDGVCTVANCVGKELAPHVKKHGSKLVPESLKKDKDGKSPLDGAMVVAASSVQGFSTVWQGLECAAKCIVNNVSAETVQTVRYKYGYNAGEATHHAVDSAVNVGVTAYNINNIGIKAMVKKTATQTGHTLLEDYQIVDNSQRENQEGAANVNVRGEKDEQTKEVKEAKKKDK
notes: Spartin (SPG20), human, Uniprot Q8N0X7, full-length; gene synthesized and cloned into pCMV10 with an N-terminal 3xFLAG tag; The Expi293 methods describe only elution with 3xFLAG peptide and no protease step; source: Expi293 cells, purified (anti-FLAG resin); not shown: 3xFLAG, N-terminal, cleaved
B1: the “stoichiometry N” value in series [3] is approximately 3.
